Patent US11072647B2, “TGF-receptor II isoform, fusion peptide, methods of treatment and methods in vitro” (Onsejo Nacional DE Investigation Cientiticay Tecnica, priority 2013, dated 2021)

Test system: CPFX-treated juvenile rats
Conditions: rat, in vivo
Experimental: Thus, the effect of the TβII-SE isoform was analyzed either in CPFX-treated juvenile rats (24 days old) or untreated rats, by intra-articular injections of lentiviral vectors encoding a recombinant protein of the codon-optimized (co) TβRII-SE fused to the constant fragment (Fc) of the human immunoglobulin 1 (IgG1) (Lt.coTβRII-SE/Fc) or the enhanced green fluorescent protein (Lt.eGFP).
Male 24-day-old Wistar rats were housed under controlled conditions at 21±1° C. with 50%±5% relative humidity and a constant light-dark schedule (light, 8 a.m. to 8 p.m.). Food and tap water was provided ad libitum. The rats received ciprofloxacin hydrochloride on day 24 by oral administration of 200 mg/kg of body weight during 10 days. The animals were examined for clinical abnormalities including motility alterations and weighted during the treatment period.
On day 14 after ciprofloxacin treatment, 50 μl viral vectors were injected intra-articularly with either Lt.coTBRII-SE/Fc (2.35×10^6 transducing Units, TU) or Lt.eGFP (6×10^6 TU). Control animals without ciprofloxacin were treated in the same manner.

Substance: coTβRII-SE/Fc: fusion peptide of codon-optimized TβRII-SE and the human IgG1 Fc region, SEQ ID No. 6
- X-ray images of knees: radiolucent images with irregular borders in the femoral condyle
